# Source: patent US20240360246A1 (BIO Y A S, published 2024)
# Tests used:
# [1] = molecular target: T1, Human YKL-40 also known as Chitinase-3-like protein 1 (CHI3L1) (human, UniProt P36222 22-383); test: phage ELISA
# T1 construct: Secreted protein purified from MG63 supernatant or purchased (Catalogue #2599-CH); also called hYKL-40
# [2] = molecular target: T1, Human YKL-40 also known as …; test: ELISA, plate coated with 2.5 µg/ml hYKL-40
# Method: A 96-well ELISA plate were coated with 2.5 μg/ml hYKL-40 or 2.5 μg/ml calmodulin as control. 0.25 μg/ml (8), […] (7), 1 μg/ml (6), 2.5 μg/ml (5), 6.25 μg/ml (4), 12.5 μg/ml (3), 15 μg/ml (2) and 20 μg/ml (1) of the antibodies B3 (SEQ ID NO: 3)-mFc or B10 (SEQ ID NO: 4)-mFc were added.
# [3] = molecular target: T1, Human YKL-40 also known as …; test: dot blot
# Method: A dot blot was performed by adding 0.4 μg and 0.2 μg of hYKL-40, 0.4 μg and 0.2 μg mYKL-40, 0.4 μg and 0.2 μg of calmodulin (negative control) and PBS (negative control) onto the nitrocellulose membrane. The membrane was incubated with B3 (SEQ ID NO: 3)-hFc.
# A dot blot was performed by adding 0.4 μg and 0.2 μg of hYKL-40, 0.4 μg and 0.2 μg mYKL-40, 0.4 μg and 0.2 μg of calmodulin (negative control) and PBS (negative control) onto the nitrocellulose membrane. The area that the solution penetrates was minimized. The membrane was dried for 1 h at room temperature (RT). Afterwards the membrane was blocked in PBS with 0.1% Tween overnight at 4° C. followed by three washing steps with PBS with 0.1% Tween. The membrane was incubated with B3-hFc (1 μg/mL) in blocking buffer for 2 h at RT in a shaker followed by three washing steps with PBS with 0.1% Tween. The membrane was incubated with HRP anti-human secondary antibody for 2 hours at RT in shaker followed by three washing steps with PBS with 0.1% Tween. The western blot was developed with western blotting detection reagent.
# [4] = molecular target: T1, Human YKL-40 also known as …; test: western blot
# Method: For the western blot 0.5 μg hYKL-40 or mYKL-40 were loaded onto a 4-20% SurePAGE, Bis-TRIS gel. The gel was run at 120V for 70 min and afterwards the samples were transferred to a nitrocellulose membrane using iBlot system. The membrane was incubated with 1 μg/ml primary antibody B10 (SEQ ID NO: 4)-hFc.
# [5] = molecular target: T2, Murine YKL-40 (mouse, UniProt Q61362 30-389); test: ELISA
# T2 construct: Purchased (Catalogue #2649-CH); also called mYKL-40; mouse YKL-40
# T2 sequence (Q61362 30-389 limits assumed): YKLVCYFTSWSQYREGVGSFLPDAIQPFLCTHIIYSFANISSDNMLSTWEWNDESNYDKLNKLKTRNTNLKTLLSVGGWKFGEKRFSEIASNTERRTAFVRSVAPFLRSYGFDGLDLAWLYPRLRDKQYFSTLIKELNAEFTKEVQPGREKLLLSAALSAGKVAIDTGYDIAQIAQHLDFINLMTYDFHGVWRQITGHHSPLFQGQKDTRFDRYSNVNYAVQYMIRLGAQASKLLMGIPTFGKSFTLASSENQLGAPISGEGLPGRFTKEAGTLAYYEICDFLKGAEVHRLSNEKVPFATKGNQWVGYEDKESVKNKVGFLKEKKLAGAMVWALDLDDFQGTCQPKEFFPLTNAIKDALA
# [6] = molecular target: T1, Human YKL-40 also known as …; test: ELISA
# T1 sequence (P36222 22-383 limits assumed): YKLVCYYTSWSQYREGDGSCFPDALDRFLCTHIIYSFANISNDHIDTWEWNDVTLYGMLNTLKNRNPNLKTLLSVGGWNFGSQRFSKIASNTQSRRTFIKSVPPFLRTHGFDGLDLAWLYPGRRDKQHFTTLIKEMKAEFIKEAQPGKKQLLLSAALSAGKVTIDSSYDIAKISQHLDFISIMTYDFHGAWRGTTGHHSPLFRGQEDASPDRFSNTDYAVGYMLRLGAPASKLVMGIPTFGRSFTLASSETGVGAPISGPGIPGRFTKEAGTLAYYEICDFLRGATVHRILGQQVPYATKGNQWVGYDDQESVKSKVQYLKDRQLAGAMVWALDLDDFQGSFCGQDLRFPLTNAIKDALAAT
binder,measurement,setting,value
"B3 predator (phage antibody clone B3) (antibody, V domains shown) VH: EVQLLESGGGLVQPGGSLRLSCAASGFRDSDEDMGWVRQAPGKGLEWVSSISAPGGSTYYADSVKGRFTISRDNSKNTLYLQMNSLRAEDTAVYYCASHYNYGHWFDYWGQGTLVTVSS",binding result,[1],binds
"B10 predator (phage antibody clone B10) (antibody, V domains shown) VH: EVQLLESGGGLVQPGGSLRLSCAASGFRDSDEDMGWVRQAPGKGLEWVSSISADSGSTYYADSVKGRFTISRDNSKNTLYLQMNSLRAEDTAVYYCASDYNYWYWFDYWGQGTLVTVSS",binding result,[1],binds
"B3 (SEQ ID NO: 3) fused to murine Fc (mFc) (Fc fusion, VH domain fused to murine Fc; no linker stated; also called B3-mFc; B3 mouse) MAEVQLLESGGGLVQPGGSLRLSCAASGFRDSDEDMGWVRQAPGKGLEWVSSISAPGGSTYYADSVKGRFTISRDNSKNTLYLQMNSLRAEDTAVYYCASHYNYGHWFDYWGQGTLVTVSSAARSPPLKECPPCAAPDLLGGPSVFIFPPKIKDVLMISLSPMVTCVVVDVSEDDPDVQISWFVNNVEVHTAQTQTHREDYNSTLRVVSALPIQHQDWMSGKEFKCKVNNRALPSPIEKTISKPRGPVRAPQVYVLPPPAEEMTKKEFSLTCMITGFLPAEIAVDWTSNGRTEQNYKNTATVLDSDGSYFMYSKLRVQKSTWERGSLFACSVVHEGLHNHLTTKTISRSLGK",binding result,[2],binds
"B10 (SEQ ID NO: 4) fused to mFc (Fc fusion, VH domain fused to murine Fc; no linker stated; also called B10-mFc; B10 mouse) MAEVQLLESGGGLVQPGGSLRLSCAASGFRDSDEDMGWVRQAPGKGLEWVSSISADSGSTYYADSVKGRFTISRDNSKNTLYLQMNSLRAEDTAVYYCASDYNYWYWFDYWGQGTLVTVSSAARSPPLKECPPCAAPDLLGGPSVFIFPPKIKDVLMISLSPMVTCVVVDVSEDDPDVQISWFVNNVEVHTAQTQTHREDYNSTLRVVSALPIQHQDWMSGKEFKCKVNNRALPSPIEKTISKPRGPVRAPQVYVLPPPAEEMTKKEFSLTCMITGFLPAEIAVDWTSNGRTEQNYKNTATVLDSDGSYFMYSKLRVQKSTWERGSLFACSVVHEGLHNHLTTKTISRSLGK",binding result,[2],binds
"B3 (SEQ ID NO: 3) fused to a human Fc (hFc) (Fc fusion, VH domain fused to human Fc; no linker stated; also called B3-hFc) MAEVQLLESGGGLVQPGGSLRLSCAASGFRDSDEDMGWVRQAPGKGLEWVSSISAPGGSTYYADSVKGRFTISRDNSKNTLYLQMNSLRAEDTAVYYCASHYNYGHWFDYWGQGTLVTVSSAAVECPPCPAPPVAGPSVFLFPPKPKDTLMISRTPEVTCVVVDVSHEDPEVQFNWYVDGMEVHNAKTKPREEQFNSTFRVVSVLTVVHQDWLNGKEYKCKVSNKGLPAPIEKTISKTKGQPREPQVYTLPPSREEMTKNQVSLTCLVKGFYPSDIAVEWESNGQPENNYKTTPPMLDSDGSFFLYSKLTVDKSRWQQGNVFSCSVMHEALHNHYTQKSLSLSPGK",binding result,[3],binds
"B10 (SEQ ID NO: 4) fused to a human Fc (Fc fusion, VH domain fused to human Fc; no linker stated; also called B10-hFc) MAEVQLLESGGGLVQPGGSLRLSCAASGFRDSDEDMGWVRQAPGKGLEWVSSISADSGSTYYADSVKGRFTISRDNSKNTLYLQMNSLRAEDTAVYYCASDYNYWYWFDYWGQGTLVTVSSAAVECPPCPAPPVAGPSVFLFPPKPKDTLMISRTPEVTCVVVDVSHEDPEVQFNWYVDGMEVHNAKTKPREEQFNSTFRVVSVLTVVHQDWLNGKEYKCKVSNKGLPAPIEKTISKTKGQPREPQVYTLPPSREEMTKNQVSLTCLVKGFYPSDIAVEWESNGQPENNYKTTPPMLDSDGSFFLYSKLTVDKSRWQQGNVFSCSVMHEALHNHYTQKSLSLSPGK",binding result,[4],binds
"H7 antibody comprising a VL of SEQ ID NO: 14 and a VH of SEQ ID NO: 15 fused to human Fc regions (antibody, human IgG1, kappa, V domains shown, Chimeric mouse/human antibody; also called H7-hFc) VH: EVQLQQSGAELVKPGASVKLSCTASGFNIKDTYMHWVKQRPEQGLEWIGRIDPANGNTIYASKFQGKATITRDTSSNTAYMQLSSLTSGDTAVYYCTRGVYYYGGSFYAMDYWGQGTSVTVSS VL: DIQMTQSPASLSASVGETVTITCGASENIYGALNWYQRKQGKSPQLLIYGATTLADGMSSRFSGSGSGRQYSLKISSLHPDDVATYYCQNVLTTPWTFGGGTKLEIKT",binding result,[5],binds
same,binding result,[6],binds
